Results from article PMC1976452.
Where two headings read alike, the source gives them in different places.

Columns and labels:
[1] = target: T1, thrombin (Amersham Biosciences) (human, UniProt P00734;P00734 315-363;364-622); assay: filter binding
[2] = target: T1, thrombin (Amersham Biosciences); assay: filter binding; remark: listed apart in the source

Binder	binding result [1]	binding result [2]
GTCTCTTGTGTGACTCTGGTAAC (ssDNA) [P8 ssDNA control]	no binding	
GGACUUCGGUCC (structured_RNA) [H1 RNA hairpin control]		no binding
